Experimental findings from US20140274782A1, “AFFINITY REAGENTS AND METHODS FOR DETECTION, PURIFICATION, AND PROTEOMIC ANALYSIS OF METHYLATED PROTEINS” (The Board of Trustees of the Leland Stanford Junior …, priority 2013, published 2014) are described below.

The test system of test [1] is 3×MBT domain of L3MBTL1. The test can be described thus: Triple SILAC pull-down, 3xMBT/3xMBTD355N ratio (cytoplasmic, nuclear and chromatin fractions of 293T cells).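 As to all read-outs here: proteins quantified with MaxQuant, requiring at least two unique peptides and quantification in both label directions, normalized to the mean of proteins from a digested loading control.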 The format is binding, human. Particulars: SILAC ratio; for Protein Ratios 3xMBT/D355N: pull-down by 3xMBT vs 3xMBTD355N, 293T cells.
For test [2], the target named is T1, G9a and GLP (Homo sapiens, UniProt Q96KQ7+Q9H9B1).
T1 sequence (Q96KQ7 2-1210 limits assumed): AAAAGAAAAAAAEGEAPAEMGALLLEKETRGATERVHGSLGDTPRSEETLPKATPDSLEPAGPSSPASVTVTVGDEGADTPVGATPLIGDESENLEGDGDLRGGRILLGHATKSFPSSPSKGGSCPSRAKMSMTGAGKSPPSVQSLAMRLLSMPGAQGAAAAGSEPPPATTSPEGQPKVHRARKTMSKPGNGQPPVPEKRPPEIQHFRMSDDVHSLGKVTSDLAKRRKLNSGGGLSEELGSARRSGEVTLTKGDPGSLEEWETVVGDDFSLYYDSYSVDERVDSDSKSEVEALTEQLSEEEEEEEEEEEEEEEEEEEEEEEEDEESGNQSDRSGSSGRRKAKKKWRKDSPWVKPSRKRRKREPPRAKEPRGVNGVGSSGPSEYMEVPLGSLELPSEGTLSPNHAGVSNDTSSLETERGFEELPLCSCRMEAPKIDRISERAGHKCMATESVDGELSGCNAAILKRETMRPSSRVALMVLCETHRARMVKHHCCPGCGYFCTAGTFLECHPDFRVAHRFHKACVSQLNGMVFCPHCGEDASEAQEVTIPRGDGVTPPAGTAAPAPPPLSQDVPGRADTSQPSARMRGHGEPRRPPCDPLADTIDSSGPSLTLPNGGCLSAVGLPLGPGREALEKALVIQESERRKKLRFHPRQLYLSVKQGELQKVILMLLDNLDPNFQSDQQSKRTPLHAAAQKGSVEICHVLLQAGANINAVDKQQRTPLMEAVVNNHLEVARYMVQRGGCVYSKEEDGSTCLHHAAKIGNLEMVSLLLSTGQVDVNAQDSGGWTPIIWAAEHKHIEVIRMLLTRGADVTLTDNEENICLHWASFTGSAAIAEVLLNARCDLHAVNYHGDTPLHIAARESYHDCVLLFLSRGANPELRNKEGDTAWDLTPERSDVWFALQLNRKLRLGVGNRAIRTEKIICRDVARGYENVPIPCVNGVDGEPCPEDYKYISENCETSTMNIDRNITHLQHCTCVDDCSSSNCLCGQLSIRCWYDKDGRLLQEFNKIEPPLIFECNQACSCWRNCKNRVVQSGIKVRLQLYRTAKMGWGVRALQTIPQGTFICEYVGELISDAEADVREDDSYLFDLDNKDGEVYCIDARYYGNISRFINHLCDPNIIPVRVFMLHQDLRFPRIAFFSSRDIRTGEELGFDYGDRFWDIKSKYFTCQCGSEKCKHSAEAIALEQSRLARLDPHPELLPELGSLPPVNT
T1 sequence (Q9H9B1 2-1298 limits assumed): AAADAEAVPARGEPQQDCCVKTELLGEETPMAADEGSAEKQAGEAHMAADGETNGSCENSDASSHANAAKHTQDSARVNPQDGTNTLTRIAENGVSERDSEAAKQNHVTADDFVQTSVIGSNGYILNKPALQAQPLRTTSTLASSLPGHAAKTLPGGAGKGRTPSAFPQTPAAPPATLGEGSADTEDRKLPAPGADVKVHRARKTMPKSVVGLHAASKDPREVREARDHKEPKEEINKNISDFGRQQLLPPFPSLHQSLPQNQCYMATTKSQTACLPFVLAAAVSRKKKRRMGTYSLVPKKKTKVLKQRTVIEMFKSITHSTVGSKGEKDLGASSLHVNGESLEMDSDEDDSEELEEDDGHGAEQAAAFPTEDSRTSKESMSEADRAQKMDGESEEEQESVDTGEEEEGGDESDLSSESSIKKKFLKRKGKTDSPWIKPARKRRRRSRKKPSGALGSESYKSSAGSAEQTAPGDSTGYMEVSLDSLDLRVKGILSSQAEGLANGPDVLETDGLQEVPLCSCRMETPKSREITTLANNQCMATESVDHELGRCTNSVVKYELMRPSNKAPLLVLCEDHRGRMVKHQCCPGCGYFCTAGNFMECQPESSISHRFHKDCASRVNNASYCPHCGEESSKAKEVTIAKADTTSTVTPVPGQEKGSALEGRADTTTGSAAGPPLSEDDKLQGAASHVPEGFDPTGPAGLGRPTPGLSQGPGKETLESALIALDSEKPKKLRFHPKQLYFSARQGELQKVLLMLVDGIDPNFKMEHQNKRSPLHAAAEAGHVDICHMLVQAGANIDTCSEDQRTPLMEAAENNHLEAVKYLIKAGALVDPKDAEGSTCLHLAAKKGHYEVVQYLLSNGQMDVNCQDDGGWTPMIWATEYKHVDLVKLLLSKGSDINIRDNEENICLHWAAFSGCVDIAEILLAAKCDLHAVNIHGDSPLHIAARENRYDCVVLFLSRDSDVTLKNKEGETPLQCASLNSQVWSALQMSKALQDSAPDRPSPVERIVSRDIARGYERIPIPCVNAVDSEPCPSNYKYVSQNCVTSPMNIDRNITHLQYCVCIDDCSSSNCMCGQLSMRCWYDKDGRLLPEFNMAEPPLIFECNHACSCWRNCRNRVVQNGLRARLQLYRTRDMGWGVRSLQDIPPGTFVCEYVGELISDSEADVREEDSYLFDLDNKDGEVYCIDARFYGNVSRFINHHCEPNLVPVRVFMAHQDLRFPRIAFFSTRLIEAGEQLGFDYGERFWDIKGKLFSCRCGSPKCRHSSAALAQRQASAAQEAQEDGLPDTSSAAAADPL
The test can be described thus: Triple SILAC pull-down after UNC0638 treatment of 293T cells, DMSO/UNC0638 ratio of protein captured by 3×MBT.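 As to all read-outs here: mass spectrometry (Q-Exactive) SILAC quantitation, DMSO/UNC0638 ratio computed after subtracting 3×MBTD355N mutant pull-down background, only proteins with at least twofold 3×MBT over mutant signal considered.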 The format is cell-based. Also noted: endogenous in cells; host or cells: HEK 293T. Particulars: for Protein Ratios DMSO/UNC0638: SILAC ratio of protein captured by 3xMBT, 293T cells treated 24 hours with UNC0638 at 2.5 μM or DMSO.

B1: Apoptosis inhibitor 5 (protein, UniProt Q9BZZ5 2-524, looked up)
Apoptosis inhibitor 5: PTVEELYRNYGILADATEQVGQHKDAYQVILDGVKGGTKEKRLAAQFIPKFFKHFPELADSAINAQLDLCEDEDVSIRRQAIKELPQFATGENLPRVADILTQLLQTDDSAEFNLVNNALLSIFKMDAKGTLGGLFSQILQGEDIVRERAIKFLSTKLKTLPDEVLTKEVEELILTESKKVLEDVTGEEFVLFMKILSGLKSLQTVSGRQQLVELVAEQADLEQTFNPSDPDCVDRLLQCTRQAVPLFSKNVHSTRFVTYFCEQVLPNLGTLTTPVEGLDIQLEVLKLLAEMSSFCGDMEKLETNLRKLFDKLLEYMPLPPEEAENGENAGNEEPKLQFSYVECLLYSFHQLGRKLPDFLTAKLNAEKLKDFKIRLQYFARGLQVYIRQLRLALQGKTGEALKTEENKIKVVALKITNNINVLIKDLFHIPPSYKSTVTLSWKPVQKVEIGQKRASEDTTSGSPPKKSSAGPKRDARQIYNPPSGKYSSNLGNFNYEQRGAFRGSRGGRGWGTRGNRSRGRLY
With B1, in test [1], the “Protein Ratios 3xMBT/D355N” value came out at 8.6. The “Protein Ratios DMSO/UNC0638” value in test [2] was determined as 1.6.

B2: Hematological and neurological-expressed 1-like protein (protein, UniProt Q9H910 1-190, looked up)
Jupiter microtubule …: MFQVPDSEGGRAGSRAMKPPGGESSNLFGSPEEATPSSRPNRMASNIFGPTEEPQNIPKRTNPPGGKGSGIFDESTPVQTRQHLNPPGGKTSDIFGSPVTATSRLAHPNKPKDHVFLCEGEEPKSDLKAARSIPAGAEPGEKGSARKAGPAKEQEPMPTVDSHEPRLGPRPRSHNKVLNPPGGKSSISFY
Consider B2, for which the “Protein Ratios 3xMBT/D355N” value in test [1] came out at 8.9. The “Protein Ratios DMSO/UNC0638” value in test [2] came to 1.6.

B3: DDB1- and CUL4-associated factor 7 (protein, UniProt P61962 1-342, looked up)
DDB1- and CUL4-associated …: MSLHGKRKEIYKYEAPWTVYAMNWSVRPDKRFRLALGSFVEEYNNKVQLVGLDEESSEFICRNTFDHPYPTTKLMWIPDTKGVYPDLLATSGDYLRVWRVGETETRLECLLNNNKNSDFCAPLTSFDWNEVDPYLLGTSSIDTTCTIWGLETGQVLGRVNLVSGHVKTQLIAHDKEVYDIAFSRAGGGRDMFASVGADGSVRMFDLRHLEHSTIIYEDPQHHPLLRLCWNKQDPNYLATMAMDGMEVVILDVRVPCTPVARLNNHRACVNGIAWAPHSSCHICTAADDHQALIWDIQQMPRAIEDPILAYTAEGEINNVQWASTQPDWIAICYNNCLEILRV
Consider B3, for which the “Protein Ratios 3xMBT/D355N” value in test [1] stood at 2.8. Further, the “Protein Ratios DMSO/UNC0638” value in test [2] is given as 1.5.

B4: RNA-binding protein 15 (protein)
chain: MRTAGRDPVPRRSPRWRRAVPLCETSAGRRVTQLRGDDLRRPATMKGKERSPVKAKRSRGGEDSTSRGERSKKLGGSGGSNGSSSGKTDSGGGSRRSLHLDKSSSRGGSREYDTGGGSSSSRLHSYSSPSTKNSSGGGESRSSSRGGGGESRSSGAASSAPGGGDGAEYKTLKISELGSQLSDEAVEDGLFHEFKRFGDVSVKISHLSGSGSGDERVAFVNFRRPEDARAAKHARGRLVLYDRPLKIEAVYVSRRRSRSPLDKDTYPPSASVVGASVGGHRHPPGGGGGQRSLSPGGAALGYRDYRLQQLALGRLPPPPPPPLPRDLERERDYPFYERVRPAYSLEPRVGAGAGAAPFREVDEISPEDDQRANRTLFLGNLDITVTESDLRRAFDRFGVITEVDIKRPSRGQTSTYGFLKFENLDMSHRAKLAMSGKIIIRNPIKIGYGKATPTTRLWVGGLGPWVPLAALAREFDRFGTIRTIDYRKGDSWAYIQYESLDAAHAAWTHMRGFPLGGPDRRLRVDFADTEHRYQQQYLQPLPLTHYELVTDAFGHRAPDPLRGARDRTPPLLYRDRDRDLYPDSDWVPPPPPVRERSTRTAATSVPAYEPLDSLDRRRDGWSLDRDRGDRDLPSSRDQPRKRRLPEESGGRHLDRSPESDRPRKRHCAPSPDRSPELSSSRDRYNSDNDRSSRLLLERPSPIRDRRGSLEKSQGDKRDRKNSASAERDRKHRTTAPTEGKSPLKKEDRSDGSAPSTSTASSKLKSPSQKQDGGTAPVASASPKLCLAWQGMLLLKNSNFPSNMHLLQGDLQVASSLLVEGSTGGKVAQLKITQRLRLDQPKLDEVTRRIKVAGPNGYAILLAVPGSSDSRSSSSSAASDTATSTQRPLRNLVSYLKQKQAAGVISLPVGGNKDKENTGVLHAFPPCEFSQQFLDSPAKALAKSEEDYLVMIIVRGFGFQIGVRYENKKRENLALTLL
For B4, the “3xMBT/D355N UNC Heavy” value in test [1] (pull-down 3xMBT vs 3xMBTD355N, experiment with UNC0638 in heavy SILAC media) was 2.14 log base 2. Moreover, the “3xMBT/D355N UNC Light” value in test [1] (pull-down 3xMBT vs 3xMBTD355N, experiment with UNC0638 in light SILAC media) was 4.48 log base 2. Further, in test [1], the “Protein Ratios 3xMBT/D355N” value is listed as 9.9. Also, in test [2] (SILAC ratio DMSO/UNC0638 of protein pulled down with 3xMBT, UNC0638 in heavy SILAC media), the “Relative to UNC0638 UNC Heavy” value is on record as 1.65 log base 2. The “Relative to UNC0638 UNC Light” value in test [2] (SILAC ratio DMSO/UNC0638 of protein pulled down with 3xMBT, UNC0638 in light SILAC media) came out at 0.26 log base 2. For the same molecule, in test [2], the “Protein Ratios DMSO/UNC0638” value turned out to be 1.9. Also, the “Relative to UNC0638 Average” value in test [2] (average of UNC Light and UNC Heavy experiments) was found to be 0.96 log base 2. The “Candidate G9a/GLP target” value in test [2] (reduced association with 3xMBT after UNC0638 treatment) was “✓”.

B5: Peptidyl-prolyl cis-trans isomerase-like 4 (protein, UniProt Q8WUA2 1-492, looked up)
Peptidyl-prolyl cis-trans …: MAVLLETTLGDVVIDLYTEERPRACLNFLKLCKIKYYNYCLIHNVQRDFIIQTGDPTGTGRGGESIFGQLYGDQASFFEAEKVPRIKHKKKGTVSMVNNGSDQHGSQFLITTGENLDYLDGVHTVFGEVTEGMDIIKKINETFVDKDFVPYQDIRINHTVILDDPFDDPPDLLIPDRSPEPTREQLDSGRIGADEEIDDFKGRSAEEVEEIKAEKEAKTQAILLEMVGDLPDADIKPPENVLFVCKLNPVTTDEDLEIIFSRFGPIRSCEVIRDWKTGESLCYAFIEFEKEEDCEKAFFKMDNVLIDDRRIHVDFSQSVAKVKWKGKGGKYTKSDFKEYEKEQDKPPNLVLKDKVKPKQDTKYDLILDEQAEDSKSSHSHTSKKHKKKTHHCSEEKEDEDYMPIKNTNQDIYREMGFGHYEEEESCWEKQKSEKRDRTQNRSRSRSRERDGHYSNSHKSKYQTDLYERERSKKRDRSRSPKKSKDKEKSKYR
As to B5, the “Protein Ratios 3xMBT/D355N” value in test [1] is 4.0. For the same molecule, in test [2], the “Protein Ratios DMSO/UNC0638” value came out at 1.4.
